The record followed here is PMC12394548 (Nature Communications, 2025).

Common to all, as to details: both partners purified
The target of assay [1] is T1, valosin-containing protein (VCP)/p97 (UniProt P55072 1-806, terbium chelate (CoraFluor), non-site-selective labelling, DOL 0.33, in the TR-FRET assays only).
T1 construct: VCP/p97, full length; One molecule for the unlabelled protein (cryo-EM, DUB assay) and the Tb-labelled protein (TR-FRET); Hexamer seen by cryo-EM; also called Tb-VCP; terbium-chelate labeled VCP; source: co-expressed with VCPIP1 for cryo-EM data set 1 (ion exchange omitted)
T1 sequence (P55072 whole entry): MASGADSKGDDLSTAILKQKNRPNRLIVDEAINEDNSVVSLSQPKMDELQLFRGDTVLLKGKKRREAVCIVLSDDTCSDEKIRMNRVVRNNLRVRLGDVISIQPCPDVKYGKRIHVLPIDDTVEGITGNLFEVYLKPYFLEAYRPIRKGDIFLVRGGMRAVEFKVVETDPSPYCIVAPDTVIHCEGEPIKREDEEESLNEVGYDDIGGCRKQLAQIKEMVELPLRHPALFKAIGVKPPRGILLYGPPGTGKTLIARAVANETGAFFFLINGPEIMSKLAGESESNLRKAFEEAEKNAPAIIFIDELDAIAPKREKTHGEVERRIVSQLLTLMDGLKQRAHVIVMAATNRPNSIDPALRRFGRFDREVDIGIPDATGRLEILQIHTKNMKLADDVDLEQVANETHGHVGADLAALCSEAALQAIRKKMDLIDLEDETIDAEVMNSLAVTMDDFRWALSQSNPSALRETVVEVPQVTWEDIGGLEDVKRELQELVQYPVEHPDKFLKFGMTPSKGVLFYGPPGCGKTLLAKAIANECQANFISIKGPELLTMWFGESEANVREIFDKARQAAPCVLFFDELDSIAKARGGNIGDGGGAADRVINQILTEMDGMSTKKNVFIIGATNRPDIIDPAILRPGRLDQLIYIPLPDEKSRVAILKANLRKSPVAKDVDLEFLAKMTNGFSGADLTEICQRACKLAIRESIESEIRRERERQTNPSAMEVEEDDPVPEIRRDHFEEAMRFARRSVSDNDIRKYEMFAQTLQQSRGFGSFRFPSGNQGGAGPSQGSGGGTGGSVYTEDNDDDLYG
As to the kind of experiment: FRET or BRET; TR-FRET binding assay of BODIPY-VCPIP1 WT on Tb-VCP with 1 uM ADP; apparent KD. In general terms: Bioluminescence resonance energy transfer reports proximity on the nanometre scale.

The target of assay [2] is T1, valosin-containing protein (VCP)/p97. As to the kind of experiment: FRET or BRET; TR-FRET binding assay of BODIPY-VCPIP1 WT on Tb-VCP with 1 uM AMP; apparent KD.
Assay [3] shares this target. The assay is described as follows: FRET or BRET; TR-FRET binding assay of BODIPY-VCPIP1 WT on Tb-VCP with 1 uM ATP; apparent KD.
Assay [4] shares this target. As to the kind of experiment: FRET or BRET; TR-FRET binding assay of BODIPY-VCPIP1 WT on Tb-VCP with 1 uM ATPγS; apparent KD.
Assay [5] shares this target. The assay is described as follows: FRET or BRET; TR-FRET binding assay of BODIPY-VCPIP1 WT on Tb-VCP, buffer control (no nucleotide added); apparent KD; another protein batch than a3.
Assay [6] shares this target. The assay is described as follows: FRET or BRET; TR-FRET displacement assay: 10 nM BODIPY-VCPIP1 WT pre-incubated with 10 nM Tb-VCP, serial dilution of unlabelled VCPIP1 WT or p47; TR-FRET buffer, room temperature.
For assay [7] the target is unchanged. As to the kind of experiment: FRET or BRET; TR-FRET binding assay: Tb-VCP with a serial dilution of BODIPY-labelled VCPIP1 construct; 25 mM HEPES pH 7.4, 150 mM NaCl, 0.1% BSA, 0.05% Tween-20; 1 h at room temperature; apparent KD.

One may read the IC50 as the concentration that gives 50% inhibition. High values mean lower potency, low ones higher potency.

B1: valosin contain protein p97/p47 interacting protein 1 (VCPIP1), wild type (enzyme, UniProt Q96JH7 1-1222, looked up)
chain: MSQPPPPPPPLPPPPPPPEAPQTPSSLASAAASGGLLKRRDRRILSGSCPDPKCQARLFFPASGSVSIECTECGQRHEQQQLLGVEEVTDPDVVLHNLLRNALLGVTGAPKKNTELVKVMGLSNYHCKLLSPILARYGMDKQTGRAKLLRDMNQGELFDCALLGDRAFLIEPEHVNTVGYGKDRSGSLLYLHDTLEDIKRANKSQECLIPVHVDGDGHCLVHAVSRALVGRELFWHALRENLKQHFQQHLARYQALFHDFIDAAEWEDIINECDPLFVPPEGVPLGLRNIHIFGLANVLHRPIILLDSLSGMRSSGDYSATFLPGLIPAEKCTGKDGHLNKPICIAWSSSGRNHYIPLVGIKGAALPKLPMNLLPKAWGVPQDLIKKYIKLEEDGGCVIGGDRSLQDKYLLRLVAAMEEVFMDKHGIHPSLVADVHQYFYRRTGVIGVQPEEVTAAAKKAVMDNRLHKCLLCGALSELHVPPEWLAPGGKLYNLAKSTHGQLRTDKNYSFPLNNLVCSYDSVKDVLVPDYGMSNLTACNWCHGTSVRKVRGDGSIVYLDGDRTNSRSTGGKCGCGFKHFWDGKEYDNLPEAFPITLEWGGRVVRETVYWFQYESDSSLNSNVYDVAMKLVTKHFPGEFGSEILVQKVVHTILHQTAKKNPDDYTPVNIDGAHAQRVGDVQGQESESQLPTKIILTGQKTKTLHKEELNMSKTERTIQQNITEQASVMQKRKTEKLKQEQKGQPRTVSPSTIRDGPSSAPATPTKAPYSPTTSKEKKIRITTNDGRQSMVTLKSSTTFFELQESIAREFNIPPYLQCIRYGFPPKELMPPQAGMEKEPVPLQHGDRITIEILKSKAEGGQSAAAHSAHTVKQEDIAVTGKLSSKELQEQAEKEMYSLCLLATLMGEDVWSYAKGLPHMFQQGGVFYSIMKKTMGMADGKHCTFPHLPGKTFVYNASEDRLELCVDAAGHFPIGPDVEDLVKEAVSQVRAEATTRSRESSPSHGLLKLGSGGVVKKKSEQLHNVTAFQGKGHSLGTASGNPHLDPRARETSVVRKHNTGTDFSNSSTKTEPSVFTASSSNSELIRIAPGVVTMRDGRQLDPDLVEAQRKKLQEMVSSIQASMDRHLRDQSTEQSPSDLPQRKTEVVSSSAKSGSLQTGLPESFPLTGGTENLNTETTDGCVADALGAAFATRSKAQRGNSVEELEEMDSQDAEMTNTTEPMDHS
modifications: BODIPY, non-site-selective labelling, DOL 0.23, as the labelled partner of the TR-FRET assays; unlabelled in cryo-EM, as competitor in the displacement assay and in the DUB assay
notes: AlphaFold model AF-Q96JH7-F1-v4 used for model building; One molecule for labelled and unlabelled protein; also called VCPIP1^WT; VCIP135; source: co-expressed with VCP for cryo-EM data set 1 (ion exchange omitted)
For B1, the Kd was 67.6 nM in assay [1]; 16.1 nM in assay [2]; 68.3 nM in assay [3]; 63.9 nM in assay [4]; 16.5 nM in assay [5]; 79.5 nM in assay [7]. The IC50 in assay [6] came to 74.5 nM.

B2: VCPIP1^ΔVCPID (aa Δ589-666) (enzyme, UniProt Q96JH7 1-1222, looked up)
chain: MSQPPPPPPPLPPPPPPPEAPQTPSSLASAAASGGLLKRRDRRILSGSCPDPKCQARLFFPASGSVSIECTECGQRHEQQQLLGVEEVTDPDVVLHNLLRNALLGVTGAPKKNTELVKVMGLSNYHCKLLSPILARYGMDKQTGRAKLLRDMNQGELFDCALLGDRAFLIEPEHVNTVGYGKDRSGSLLYLHDTLEDIKRANKSQECLIPVHVDGDGHCLVHAVSRALVGRELFWHALRENLKQHFQQHLARYQALFHDFIDAAEWEDIINECDPLFVPPEGVPLGLRNIHIFGLANVLHRPIILLDSLSGMRSSGDYSATFLPGLIPAEKCTGKDGHLNKPICIAWSSSGRNHYIPLVGIKGAALPKLPMNLLPKAWGVPQDLIKKYIKLEEDGGCVIGGDRSLQDKYLLRLVAAMEEVFMDKHGIHPSLVADVHQYFYRRTGVIGVQPEEVTAAAKKAVMDNRLHKCLLCGALSELHVPPEWLAPGGKLYNLAKSTHGQLRTDKNYSFPLNNLVCSYDSVKDVLVPDYGMSNLTACNWCHGTSVRKVRGDGSIVYLDGDRTNSRSTGGKCGCGFKHFWDGKEYDNLNIDGAHAQRVGDVQGQESESQLPTKIILTGQKTKTLHKEELNMSKTERTIQQNITEQASVMQKRKTEKLKQEQKGQPRTVSPSTIRDGPSSAPATPTKAPYSPTTSKEKKIRITTNDGRQSMVTLKSSTTFFELQESIAREFNIPPYLQCIRYGFPPKELMPPQAGMEKEPVPLQHGDRITIEILKSKAEGGQSAAAHSAHTVKQEDIAVTGKLSSKELQEQAEKEMYSLCLLATLMGEDVWSYAKGLPHMFQQGGVFYSIMKKTMGMADGKHCTFPHLPGKTFVYNASEDRLELCVDAAGHFPIGPDVEDLVKEAVSQVRAEATTRSRESSPSHGLLKLGSGGVVKKKSEQLHNVTAFQGKGHSLGTASGNPHLDPRARETSVVRKHNTGTDFSNSSTKTEPSVFTASSSNSELIRIAPGVVTMRDGRQLDPDLVEAQRKKLQEMVSSIQASMDRHLRDQSTEQSPSDLPQRKTEVVSSSAKSGSLQTGLPESFPLTGGTENLNTETTDGCVADALGAAFATRSKAQRGNSVEELEEMDSQDAEMTNTTEPMDHS
modifications: BODIPY, non-site-selective labelling, DOL 0.62, in the TR-FRET binding assay
notes: VCPIP1 full length with the VCPID (aa 589-666) deleted; made from the Strep-VCPIP1 plasmid by PCR; also called VCPID domain truncation
Regarding B2, the Kd in assay [7] was 67.9 nM.

B3: p47 (natural protein)
chain: MAAERQEALREFVAVTGAEEDRARFFLESAGWDLQIALASFYEDGGDEDIVTISQATPSSVSRGTAPSDNRVTSFRDLIHDQDEDEEEEEGQRFYAGGSERSGQQIVGPPRKKSPNELVDDLFKGAKEHGAVAVERVTKSPGETSKPRPFAGGGYRLGAAPEEESAYVAGEKRQHSSQDVHVVLKLWKSGFSLDNGELRSYQDPSNAQFLESIRRGEVPAELRRLAHGGQVNLDMEDHRDEDFVKPKGAFKAFTGEGQKLGSTAPQVLSTSSPAQQAENEAKASSSILIDESEPTTNIQIRLADGGRLVQKFNHSHRISDIRLFIVDARPAMAATSFILMTTFPNKELADESQTLKEANLLNAVIVQRLT
notes: p47 cloned into pNIC-Bio2 with an N-terminal His-6-TEV tag; printed residue numbers reach V366 (UBX domain); Used unlabelled in the displacement assay and in cryo-EM; also called adapter protein p47; source: E. coli LOBSTR, purified (Ni resin, ion exchange, SEC)
B3 came in with a half-maximal inhibitory concentration (IC50) in assay [6] of 20.4 nM.
